From article doi:10.1101/2020.09.15.299115

What was measured:
mCherry-FKBP-Ubc9 [1] = molecular target: mCherry-FKBP-Ubc9 (UniProt P63279)
mCherry-FKBP-Ubc9 [2] = molecular target: mCherry-FKBP-Ubc9 (UniProt P63279); assay: partitioning into condensates

Molecule	KM of SUMOylation of RanGAP* (no scaffolds) (mCherry-FKBP-Ubc9 [1])	fold concentration in droplets (mCherry-FKBP-Ubc9 [2])
FKBP-EGFP-RanGAP* (RanGAP C-terminal domain 398-587, F562A) (from UniProt P46060 398-587) (domain or fragment)	70 µM	–
E1-EGFP (SAE1/2 heterodimer) (complex) chain 1: MVEKEEAGGGISEEEAAQYDRQIRLWGLEAQKRLRASRVLLVGLKGLGAEIAKNLILAGVKGLTMLDHEQVTPEDPGAQFLIRTGSVGRNRAEASLERAQNLNPMVDVKVDTEDIEKKPESFFTQFDAVCLTCCSRDVIVKVDQICHKNSIKFFTGDVFGYHGYTFANLGEHEFVEEKTKVAKVSQGVEDGPDTKRAKLDSSETTMVKKKVVFCPVKEALEVDWSSEKAKAALKRTTSDYFLLQVLLKFRTDKGRDPSSDTYEEDSELLLQIRNDVLDSLGISPDLLPEDFVRYCFSEMAPVCAVVGGILAQEIVKALSQRDPPHNNFFFFDGMKGNGIVECLGPK chain 2: MALSRGLPRELAEAVAGGRVLVVGAGGIGCELLKNLVLTGFSHIDLIDLDTIDVSNLNRQFLFQKKHVGRSKAQVAKESVLQFYPKANIVAYHDSIMNPDYNVEFFRQFILVMNALDNRAARNHVNRMCLAADVPLIESGTAGYLGQVTTIKKGVTECYECHPKPTQRTFPGCTIRNTPSEPIHCIVWAKYLFNQLFGEEDADQEVSPDRADPEAAWEPTEAEARARASNEDGDIKRISTKEWAKSTGYDPVKLFTKLFKDDIRYLLTMDKLWRKRKPPVPLDWAEVQSQGEETNASDQQNEPQLGLKDQQVLDVKSYARLFSKSIETLRVHLAEKGDGAELIWDKDDPSAMDFVTSAANLRMHIFSMNMKSRFDIKSMAGNIIPAIATTNAVIAGLIVLEGLKILSGKIDQCRTIFLNKQPNPRKKLLVPCALDPPNPNCYVCASKPEVTVRLNVHKVTVLTLQDKIVKEKFAMVAPDVQIEDGKGTILISSEEGETEANNHKKLSEFGIRNGSRLQADDFLQDYTLLINILHSEDLGKDVEFEVVGDAPEKVGPKQAEDAAKSITNGSDDGAQPSTSTAQEQDDVLIVDSDEEDSSNNADVSEEERSRKRKLDEKENLSAKRSRIEQKEELDDVIALD	–	1.9 fold
